Data published in doi:10.1101/2025.04.16.649181, “Design of peptide-based PAC1 antagonists combining molecular dynamics simulations and a biologically relevant cell-based assay” (bioRxiv, 2025).
No end group written: not given here.

How the values were obtained:
[1] = target: PAC1 endogenously expressed in SH-SY5Y cells (human (endogenous in SH-SY5Y)) (UniProt P41586)
PAC1 [2] = settings: ref 15 (maxadilan); cited from earlier work
From the text: Similarities include initial binding events between the C-terminal domain of the peptide with the extracellular domain (ECD) followed by insertion of the N-terminus of the peptide into the core of the receptor to enable activation, but with differences in binding poses in the C-terminus explaining in part the ligand selectivity of each receptor [13]. Empirica ...

human PAC1hop (hPAC1) = experiment: cAMP biosensor (CBS) assay, agonist responses in HEK293_CBS_hPAC1; format: cell-based; settings: HEK293_CBS_hPAC1, IBMX pretreated, luminescence
From the text: A single clone of the SH-SY5Y cell line stably expressing a cAMP biosensor (SY5Y_CBS) was generated as previously described for HEK293_CBS and NS-1_CBS cells, using the retroviral vector pLHCX containing the cAMP biosensor and a hygromycin resistance gene. A HEK293_CBS_hPAC1 cell clone was generated by transducing HEK293_CBS cells with the lentiviral vector pLX304 (GeneCopoeia, Rockville, MD) encoding the human PAC1hop (PAC1; GenBank accession no. BC143679) and a blasticidin resistance gene . Following transduction, cells were selected with the appropriate antibiotics (hygromycin or blasticidin) for 2 weeks. Single-cell clones were subsequently isolated by limiting dilution and assessed for PACAP-induced cAMP production using concentration-response assays.
The cyclic AMP biosensor (CBS) assay was performed using Gibco CO2-independent medium (ThermoFisher, catalog #18045-088). HEK293_CBS_hPAC1 or SY5Y_CBS cells were seeded in 96-well black/clear-bottom plates (MidSci, Fenton, MO) at a density of 6,000 cells per well and incubated overnight. The following day, the medium in each well was aspirated and replaced with fresh medium containing 1.5 mg/mL D-luciferin potassium salt substrate (Gold Biotechnology, St. Louis, MO) and 500 μM isobutyl-1-methylxanthine (IBMX), followed by incubation at 37 °C for 1 hour. Cells were then pre-treated with antagonists for 10 minutes before the addition of agonists (PACAP or forskolin). Plates were incubated at 37 °C for 1 hour, then brought to room temperature and equilibrated for 30 minutes. Luminescence was measured using a GloMax plate reader (Promega, Madison, WI).
GraphPad Prism ver. 9.0 or 10.0 (GraphPad Software Inc, Boston, MA) was used for data analysis. Concentration response curves were created using a four parameter logistic regression model. EC80 and IC50 parameters were obtained using non-linear regression curve fitting tools. EC80 was calculated as the effective concentration of the agonist required to produce 80% of the maximal response. […]

PAC1 [3] = experiment: CBS assay in NS-1 cells, endogenous PAC1; format: cell-based, rat; settings: NS-1 cells expressing CBS, n = 3
Description: Cell culture reagents were purchased from ThermoFisher Scientific (Waltham, MA) unless otherwise noted. Neuroscreen-1 (NS-1) cells (Cellomics, Halethorpe, MD) were grown on flasks or plates coated with Collagen I (rat tail) as described previously. NS-1 cells were cultured in RPMI-1640 media supplemented with 10% horse serum and 5% heat-inactivated Fetal Bovine Serum (Hyclone, Logan, UT). HEK293 and SH-SY5Y cells were purchased from ATCC (Gaithersburg, MD) and cultured with DMEM medium with 10% FBS. All cell culture medium were supplemented with 2 mM glutamine, 100 U/ml penicillin, and 100 μg/ml streptomycin.
A single clone of the SH-SY5Y cell line stably expressing a cAMP biosensor (SY5Y_CBS) was generated as previously described for HEK293_CBS and NS-1_CBS cells, using the retroviral vector pLHCX containing the cAMP biosensor and a hygromycin resistance gene. […] Single-cell clones were subsequently isolated by limiting dilution and assessed for PACAP-induced cAMP production using concentration-response assays.
The cyclic AMP biosensor (CBS) assay was performed using Gibco CO2-independent medium (ThermoFisher, catalog #18045-088). […] Luminescence was measured using a GloMax plate reader (Promega, Madison, WI).
GraphPad Prism ver. […] EC80 was calculated as the effective concentration of the agonist required to produce 80% of the maximal response. […]

[4] = target: T1, PAC1 (endogenous, mainly PAC1null, SH-SY5Y) (Homo sapiens, UniProt P41586); experiment: CBS assay, agonist potency in SY5Y_CBS cells; format: cell-based
T1 construct: Neuroblastoma SH-SY5Y cells endogenously xpressing hPAC1 and engineered to express CBS; endogenous in cells
T1 sequence (P41586 21-468): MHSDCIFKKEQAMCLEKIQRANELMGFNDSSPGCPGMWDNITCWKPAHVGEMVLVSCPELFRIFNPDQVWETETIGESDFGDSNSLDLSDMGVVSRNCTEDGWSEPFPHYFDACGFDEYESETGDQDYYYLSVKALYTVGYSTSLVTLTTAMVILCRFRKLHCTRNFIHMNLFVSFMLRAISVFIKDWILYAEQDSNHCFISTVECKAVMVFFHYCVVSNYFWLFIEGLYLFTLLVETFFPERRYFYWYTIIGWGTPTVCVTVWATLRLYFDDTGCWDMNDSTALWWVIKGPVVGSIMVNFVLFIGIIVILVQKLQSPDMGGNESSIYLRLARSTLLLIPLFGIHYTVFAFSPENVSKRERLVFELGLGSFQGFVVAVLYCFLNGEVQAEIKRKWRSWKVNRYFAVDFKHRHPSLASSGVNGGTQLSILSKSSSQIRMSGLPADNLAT
From the text: A single clone of the SH-SY5Y cell line stably expressing a cAMP biosensor (SY5Y_CBS) was generated as previously described for HEK293_CBS and NS-1_CBS cells [30], using the retroviral vector pLHCX containing the cAMP biosensor and a hygromycin resistance gene. […] Following transduction, cells were selected with the appropriate antibiotics (hygromycin or blasticidin) for 2 weeks. Single-cell clones were subsequently isolated by limiting dilution and assessed for PACAP-induced cAMP production using concentration-response assays.
9.0 or 10.0 (GraphPad Software Inc, Boston, MA) was used for data analysis. Concentration response curves were created using a four parameter logistic regression model. EC80 and IC50 parameters were obtained using non-linear regression curve fitting tools. EC80 was calculated as the effective concentration of the agonist required to produce 80% of the maximal response. IC50 was calculated as the concentration of the antagonist that produced 50% of the response induced by an agonist (either PACAP or forskolin) in the absence of the antagonist. Seven or eight different concentrations and three technical replicates per concentration were used for curve fitting. All data are presented as mean ± standard error of the mean (SEM).

HEK293_CBS cells = experiment: cAMP biosensor (CBS) assay, agonist responses in parental HEK293_CBS; format: cell-based

PACAP(6-27) (peptide)
IC50 of inhibition of P27-stimulated (0.2 nM) cAMP elevation (CBS assay) in SY5Y CBS cells; pair that is blocked: m2 + m18 [1]: 100 nM
percent to which P38-induced (0.2 nM) cAMP elevation is blocked (CBS assay) in SY5Y CBS cells, antagonist up to 10 μM; pair that is blocked: m1 + m18 [1]: 50%

maxadilan
activity at PAC1 (PAC1 [2]): agonist

pituitary adenylate cyclase-activating polypeptide (PACAP) 1-38 (HSDGIFTDSYSRYRKQMAVKKYLAAVLGKRYKQRVKNK-NH2) [P38, endogenous PAC1 agonist]
agonist response (cAMP) (human PAC1hop (hPAC1)): highly responsive to P38 and P27 with similar potency and efficacy
activation of endogenous PAC1 (PAC1 [3]): can be activated by P38

vasoactive intestinal peptide [VIP]
agonist response / relative agonist potency [4]: VIP is a less potent agonist
potency relative to P27 and P38 (times less potent) [4]: about 100 times
EC80 (approximate) ([4]; Figure 5A): ~ 20 nM
EC80 ([4]; mean ± SEM, n = 3): 20 ± 6.2 nM
Hill Slope ([4]; mean ± SEM, n = 3): 1.78 ± 0.35
agonist response (cAMP) (human PAC1hop (hPAC1)): highly specific for activation by PACAP, compared to the related peptide VIP
relative potency of PACAP and VIP (HEK293_CBS cells): the potency of PACAP was similar to VIP
response relative to HEK293_CBS_hPAC1 level (HEK293_CBS cells; IBMX pretreated, luminescence): less than 5%
